Assay results as given in US20220177594A1.

Experiments:
[1] = molecular target: Feline_OSMR_hlgG1_Fc (feline); assay: SPR Biacore
[2] = molecular target: Canine_OSMR_hlgG1_Fc (canine); assay: SPR Biacore
Chain of Canine_OSMR_hlgG1_Fc (canine) (chain, as listed by the source limits assumed, form in doubt): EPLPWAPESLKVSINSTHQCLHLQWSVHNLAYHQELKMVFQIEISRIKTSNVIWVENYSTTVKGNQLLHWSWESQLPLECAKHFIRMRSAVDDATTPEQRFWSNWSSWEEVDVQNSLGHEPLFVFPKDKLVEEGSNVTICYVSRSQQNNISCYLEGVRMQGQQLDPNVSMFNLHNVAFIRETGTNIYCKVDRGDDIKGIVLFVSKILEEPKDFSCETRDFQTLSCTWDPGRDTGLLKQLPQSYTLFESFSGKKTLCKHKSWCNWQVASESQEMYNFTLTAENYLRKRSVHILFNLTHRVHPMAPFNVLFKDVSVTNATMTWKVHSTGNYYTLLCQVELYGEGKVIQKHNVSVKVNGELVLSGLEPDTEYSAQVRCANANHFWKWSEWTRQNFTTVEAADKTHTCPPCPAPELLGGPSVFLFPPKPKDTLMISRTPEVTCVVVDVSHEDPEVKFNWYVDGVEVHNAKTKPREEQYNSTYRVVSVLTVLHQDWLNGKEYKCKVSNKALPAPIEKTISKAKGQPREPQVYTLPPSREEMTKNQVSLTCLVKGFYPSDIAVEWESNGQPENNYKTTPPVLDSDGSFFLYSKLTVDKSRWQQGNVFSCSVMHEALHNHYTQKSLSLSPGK

Chain of Feline_OSMR_hlgG1_Fc (feline) (chain, as listed by the source limits assumed, form in doubt): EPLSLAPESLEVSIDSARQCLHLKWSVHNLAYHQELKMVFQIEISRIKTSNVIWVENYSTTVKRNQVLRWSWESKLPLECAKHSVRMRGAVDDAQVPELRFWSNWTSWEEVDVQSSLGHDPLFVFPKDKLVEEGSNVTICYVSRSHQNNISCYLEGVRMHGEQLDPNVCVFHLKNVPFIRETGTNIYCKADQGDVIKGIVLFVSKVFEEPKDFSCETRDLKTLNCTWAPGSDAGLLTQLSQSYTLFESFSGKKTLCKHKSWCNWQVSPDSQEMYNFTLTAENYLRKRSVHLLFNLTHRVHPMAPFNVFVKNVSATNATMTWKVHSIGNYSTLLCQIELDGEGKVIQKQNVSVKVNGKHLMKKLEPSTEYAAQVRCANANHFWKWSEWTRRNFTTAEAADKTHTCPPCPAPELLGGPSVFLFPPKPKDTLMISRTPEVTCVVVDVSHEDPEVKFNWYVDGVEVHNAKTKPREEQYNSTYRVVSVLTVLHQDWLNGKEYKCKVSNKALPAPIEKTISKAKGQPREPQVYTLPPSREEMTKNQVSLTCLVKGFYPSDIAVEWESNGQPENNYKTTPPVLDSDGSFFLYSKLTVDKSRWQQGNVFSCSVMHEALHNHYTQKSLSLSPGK

B1: FEL_10F07_2.2 (antibody)
heavy: DVQLVESGGDLVKPGGSLRLTCVASGFTFSSYAMSWVRQAPGKGLQWVAYISSGGDYFYYADTVKGRFTISRDDAKNTLYLQMSSLKTEDTATYYCTGDPITGTFAYWGQGTLVTVSSASTTAPSVFPLAPSCGTTSGATVALACLVLGYFPEPVTVSWNSGALTSGVHTFPAVLQASGLYSLSSMVTVPSSRWLSDTFTCNVAHPPSNTKVDKTVRKTDHPPGPKPCDCPKCPPPEAAGAPSIFIFPPKPKDTLSISRTPEVTCLVVDLGPDDSDVQITWFVDNTQVYTAKTSPREEQFNSTYRVVSVLPILHQDWLKGKEFKCKVNSKSLPSPIERTISKAKGQPHEPQVYVLPPAQEELSRNKVSVTCLIKSFHPPDIAVEWEITGQPEPENNYRTTPPQLDSDGTYFVYSKLSVDRSHWQRGNTYTCSVSHEALHSHHTQKSLTQSPGK
light: DITMTQSPGSLAGSPGQQVTMNCRASQDITNYLNWYQQKPGQHPKLLIYYTSTLHSGVPDRFSGSGSGTDFTLTISNLQAEDVASYYCQQGHMLPWTFGQGTRSDAQPSVFLFQPSLDELHTGSASIVCILNDFYPKEVNVKWKVDGVVQNKGIQESTTEQNSKDSTYSLSSTLTMSSTEYQSHEKFSCEVTHKSLASTLVKSFQRSECQRE
Kd [1]: 1.21 nM | koff [1]: 0.000457 s⁻¹ | kon [1]: 376000 M⁻¹ s⁻¹ | Kd [2]: 4.99 nM | koff [2]: 0.000903 s⁻¹ | kon [2]: 181000 M⁻¹ s⁻¹

B2: Canine_OSM (ligand)
chain: SCSDKYPELLGQLQKQADFMQHTNTLLDLYIRSQGLDKNGLKEHCRERPGAFPSKDALQRLSRRVFLRTLDTTLGQVLLRLAALEQDIPKAQDLEMLSGVKLNIRGFKNNIHCMAQLLPGSSETTEPTPTSPGASPSPTPTLDTFQRRLEGCRFLHGYHRFMRSVGQVFREWGKSLSRSRR
Kd [1]: 41.1 nM | koff [1]: 0.00423 s⁻¹ | kon [1]: 103000 M⁻¹ s⁻¹ | Kd [2]: 43.6 nM | koff [2]: 0.003 s⁻¹ | kon [2]: 68700 M⁻¹ s⁻¹

B3: CAN_19F07_1.1 (antibody)
heavy: EVQLVESGGDLVKPGGSLRLSCVASGFTFSDYYMAWVRQAPGKGLQWVANINYDGSSTYYLDSLKSRFTISRDNAKNTLYLQMNSLRAEDTAMYYCVRGLTWDFDVWGQGTLVTVSSASTTAPSVFPLAPSCGSTSGSTVALACLVSGYFPEPVTVSWNSGSLTSGVHTFPSVLQSSGLYSLSSMVTVPSSRWPSETFTCNVAHPASKTKVDKPVPKRENGRVPRPPDCPKCPAPEMLGGPSVFIFPPKPKDTLLIARTPEVTCVVVDLDPEDPEVQISWFVDGKQMQTAKTQPREEQFNGTYRVVSVLPIGHQDWLKGKQFTCKVNNKALPSPIERTISKARGQAHQPSVYVLPPSREELSKNTVSLTCLIKDFFPPDIDVEWQSNGQQEPESKYRTTPPQLDEDGSYFLYSKLSVDKSRWQRGDTFICAVMHEALHNHYTQESLSHSPGK
light: EIVMTQSPASLSLSQEEKVTITCKASQDVDTAVAWYQQKPGQAPKLLIYLASTRHTGVPSRFSGSGSGTDFSFTISSLEPEDVAVYYCQQYSRFPLTFGQGTRNDAQPAVYLFQPSPDQLHTGSASVVCLLNSFYPKDINVKWKVDGVIQDTGIQESVTEQDKDSTYSLSSTLTMSSTEYLSHELYSCEITHKSLPSTLIKSFQRSEC
Kd [1]: 0.32 nM | koff [1]: 3.55e-05 s⁻¹ | kon [1]: 111000 M⁻¹ s⁻¹ | Kd [2]: 9.13 nM | koff [2]: 0.000334 s⁻¹ | kon [2]: 36600 M⁻¹ s⁻¹

B4: CAN_19F07_2.1 (antibody)
heavy: EVQLVESGGDLVKPAGSLTLSCLASGFTFSDYYMAWVRQTPEKGLQWVANINYDGSSTYYLDSLKSRFTISRDNAKNTLYLQMNSLRDEDTAVYYCARGLTWDFDVWGQGTLVTVSSASTTAPSVFPLAPSCGSTSGSTVALACLVSGYFPEPVTVSWNSGSLTSGVHTFPSVLQSSGLYSLSSMVTVPSSRWPSETFTCNVAHPASKTKVDKPVPKRENGRVPRPPDCPKCPAPEMLGGPSVFIFPPKPKDTLLIARTPEVTCVVVDLDPEDPEVQISWFVDGKQMQTAKTQPREEQFNGTYRVVSVLPIGHQDWLKGKQFTCKVNNKALPSPIERTISKARGQAHQPSVYVLPPSREELSKNTVSLTCLIKDFFPPDIDVEWQSNGQQEPESKYRTTPPQLDEDGSYFLYSKLSVDKSRWQRGDTFICAVMHEALHNHYTQESLSHSPGK
light: EIVMTQSPASLSLSQEEKVTITCKASQDVDTAVAWYQQKPGQAPKLLIYLASTRHTGVPSRFSGSGSGTDFSFTISSLEPEDVAVYYCQQYSRFPLTFGQGTRNDAQPAVYLFQPSPDQLHTGSASVVCLLNSFYPKDINVKWKVDGVIQDTGIQESVTEQDKDSTYSLSSTLTMSSTEYLSHELYSCEITHKSLPSTLIKSFQRSEC
Kd [1]: 0.198 nM | koff [1]: 1.12e-05 s⁻¹ | kon [1]: 56700 M⁻¹ s⁻¹ | Kd [2]: 8.3 nM | koff [2]: 0.00022 s⁻¹ | kon [2]: 26400 M⁻¹ s⁻¹

B5: CAN_19F07_2.2 (antibody)
heavy: EVQLVESGGDLVKPAGSLTLSCLASGFTFSDYYMAWVRQTPEKGLQWVANINYDGSSTYYLDSLKSRFTISRDNAKNTLYLQMNSLRDEDTAVYYCARGLTWDFDVWGQGTLVTVSSASTTAPSVFPLAPSCGSTSGSTVALACLVSGYFPEPVTVSWNSGSLTSGVHTFPSVLQSSGLYSLSSMVTVPSSRWPSETFTCNVAHPASKTKVDKPVPKRENGRVPRPPDCPKCPAPEMLGGPSVFIFPPKPKDTLLIARTPEVTCVVVDLDPEDPEVQISWFVDGKQMQTAKTQPREEQFNGTYRVVSVLPIGHQDWLKGKQFTCKVNNKALPSPIERTISKARGQAHQPSVYVLPPSREELSKNTVSLTCLIKDFFPPDIDVEWQSNGQQEPESKYRTTPPQLDEDGSYFLYSKLSVDKSRWQRGDTFICAVMHEALHNHYTQESLSHSPGK
light: DIVMTQTPLSLSVSPGETASISCKASQDVDTAVAWFRQKPGQSPQRLIYLASTRHTGVPDRFSGSGSGTDFTLRISRVEADDTGVYYCQQYSRFPLTFGQGTRNDAQPAVYLFQPSPDQLHTGSASVVCLLNSFYPKDINVKWKVDGVIQDTGIQESVTEQDKDSTYSLSSTLTMSSTEYLSHELYSCEITHKSLPSTLIKSFQRSEC
Kd [1]: 24 nM | koff [1]: 0.00113 s⁻¹ | kon [1]: 47000 M⁻¹ s⁻¹

B6: FEL_19F07_1.1 (antibody)
heavy: DVQLVESGGDLVKPGGSLRLTCVASGFTYSDYYMAWVRQAPGKGLQWVANINYDGSSTYYLDSLKSRFTISRDNAKNTLYLQMNSLKTEDTATYYCVRGLTWDFDVWGQGTLVTVSSASTTAPSVFPLAPSCGTTSGATVALACLVLGYFPEPVTVSWNSGALTSGVHTFPAVLQASGLYSLSSMVTVPSSRWLSDTFTCNVAHPPSNTKVDKTVRKTDHPPGPKPCDCPKCPPPEAAGAPSIFIFPPKPKDTLSISRTPEVTCLVVDLGPDDSDVQITWFVDNTQVYTAKTSPREEQFNSTYRVVSVLPILHQDWLKGKEFKCKVNSKSLPSPIERTISKAKGQPHEPQVYVLPPAQEELSRNKVSVTCLIKSFHPPDIAVEWEITGQPEPENNYRTTPPQLDSDGTYFVYSKLSVDRSHWQRGNTYTCSVSHEALHSHHTQKSLTQSPGK
light: EIQMTQSPSSLSASPGDRVTITCKASQDVDTAVAWYQQKPGKVPKLLIYLASTRHTGVPSRFSGSGSGTDFTLTISSLEPEDAATYYCQQYSRFPLTFGQGTRSDAQPSVFLFQPSLDELHTGSASIVCILNDFYPKEVNVKWKVDGVVQNKGIQESTTEQNSKDSTYSLSSTLTMSSTEYQSHEKFSCEVTHKSLASTLVKSFQRSECQRE
Kd [1]: 0.783 nM | koff [1]: 6.37e-05 s⁻¹ | kon [1]: 81300 M⁻¹ s⁻¹ | Kd [2]: 10.3 nM | koff [2]: 0.000294 s⁻¹ | kon [2]: 28500 M⁻¹ s⁻¹

B7: FEL_19F07_1.2 (antibody)
heavy: DVQLVESGGDLVKPGGSLRLTCVASGFTYSDYYMAWVRQAPGKGLQWVANINYDGSSTYYLDSLKSRFTISRDNAKNTLYLQMNSLKTEDTATYYCVRGLTWDFDVWGQGTLVTVSSASTTAPSVFPLAPSCGTTSGATVALACLVLGYFPEPVTVSWNSGALTSGVHTFPAVLQASGLYSLSSMVTVPSSRWLSDTFTCNVAHPPSNTKVDKTVRKTDHPPGPKPCDCPKCPPPEAAGAPSIFIFPPKPKDTLSISRTPEVTCLVVDLGPDDSDVQITWFVDNTQVYTAKTSPREEQFNSTYRVVSVLPILHQDWLKGKEFKCKVNSKSLPSPIERTISKAKGQPHEPQVYVLPPAQEELSRNKVSVTCLIKSFHPPDIAVEWEITGQPEPENNYRTTPPQLDSDGTYFVYSKLSVDRSHWQRGNTYTCSVSHEALHSHHTQKSLTQSPGK
light: DITMTQSPGSLAGSPGQQVTMNCKASQDVDTAVAWYQQKPGQHPKLLIYLASTRHTGVPDRFSGSGSGTDFTLTISNLQAEDVASYYCQQYSRFPLTFGQGTRSDAQPSVFLFQPSLDELHTGSASIVCILNDFYPKEVNVKWKVDGVVQNKGIQESTTEQNSKDSTYSLSSTLTMSSTEYQSHEKFSCEVTHKSLASTLVKSFQRSECQRE
Kd [1]: 0.435 nM | koff [1]: 1.95e-05 s⁻¹ | kon [1]: 44700 M⁻¹ s⁻¹ | Kd [2]: 31 nM | koff [2]: 0.000327 s⁻¹ | kon [2]: 10500 M⁻¹ s⁻¹

B8: FEL_19F07_2.1 (antibody)
heavy: DVQLVESGGNLVKPGGSLRLTCVASGFTFSDYYMAWVRQAPGKGLQWVANINYDGSSTYYLDSLKSRFTISRDNAKNTLYLQMNSLKTEDTATYYCARGLTWDFDVWGQGTLVTVSSASTTAPSVFPLAPSCGTTSGATVALACLVLGYFPEPVTVSWNSGALTSGVHTFPAVLQASGLYSLSSMVTVPSSRWLSDTFTCNVAHPPSNTKVDKTVRKTDHPPGPKPCDCPKCPPPEAAGAPSIFIFPPKPKDTLSISRTPEVTCLVVDLGPDDSDVQITWFVDNTQVYTAKTSPREEQFNSTYRVVSVLPILHQDWLKGKEFKCKVNSKSLPSPIERTISKAKGQPHEPQVYVLPPAQEELSRNKVSVTCLIKSFHPPDIAVEWEITGQPEPENNYRTTPPQLDSDGTYFVYSKLSVDRSHWQRGNTYTCSVSHEALHSHHTQKSLTQSPGK
light: EIQMTQSPSSLSASPGDRVTITCKASQDVDTAVAWYQQKPGKVPKLLIYLASTRHTGVPSRFSGSGSGTDFTLTISSLEPEDAATYYCQQYSRFPLTFGQGTRSDAQPSVFLFQPSLDELHTGSASIVCILNDFYPKEVNVKWKVDGVVQNKGIQESTTEQNSKDSTYSLSSTLTMSSTEYQSHEKFSCEVTHKSLASTLVKSFQRSECQRE
Kd [1]: 0.108 nM | koff [1]: 4.07e-07 s⁻¹ | kon [1]: 3790 M⁻¹ s⁻¹

B9: FEL_19F07_2.2 (antibody)
heavy: DVQLVESGGNLVKPGGSLRLTCVASGFTFSDYYMAWVRQAPGKGLQWVANINYDGSSTYYLDSLKSRFTISRDNAKNTLYLQMNSLKTEDTATYYCARGLTWDFDVWGQGTLVTVSSASTTAPSVFPLAPSCGTTSGATVALACLVLGYFPEPVTVSWNSGALTSGVHTFPAVLQASGLYSLSSMVTVPSSRWLSDTFTCNVAHPPSNTKVDKTVRKTDHPPGPKPCDCPKCPPPEAAGAPSIFIFPPKPKDTLSISRTPEVTCLVVDLGPDDSDVQITWFVDNTQVYTAKTSPREEQFNSTYRVVSVLPILHQDWLKGKEFKCKVNSKSLPSPIERTISKAKGQPHEPQVYVLPPAQEELSRNKVSVTCLIKSFHPPDIAVEWEITGQPEPENNYRTTPPQLDSDGTYFVYSKLSVDRSHWQRGNTYTCSVSHEALHSHHTQKSLTQSPGK
light: DITMTQSPGSLAGSPGQQVTMNCKASQDVDTAVAWYQQKPGQHPKLLIYLASTRHTGVPDRFSGSGSGTDFTLTISNLQAEDVASYYCQQYSRFPLTFGQGTRSDAQPSVFLFQPSLDELHTGSASIVCILNDFYPKEVNVKWKVDGVVQNKGIQESTTEQNSKDSTYSLSSTLTMSSTEYQSHEKFSCEVTHKSLASTLVKSFQRSECQRE
Kd [1]: 0.00332 nM | koff [1]: 5.62e-07 s⁻¹ | kon [1]: 169000 M⁻¹ s⁻¹ | Kd [2]: 4.4 nM | koff [2]: 0.000215 s⁻¹ | kon [2]: 48800 M⁻¹ s⁻¹
